Here are results for 2 molecules from patent US20260226161A1 (EXELIXIS, published 2026).

Positions count from the first letter of the chain named.

In test [1] the target is T1, biotinylated human NKG2C/CD94 heterodimer (extracellular domains, Fc fusions) (human, UniProt P26717 94-231; Q13241 32-179, biotinylated).
T1 construct: not shown: N-terminal Fc (hole)
Description: BLI (Octet), summary of the examples. As to the method: The antibodies were evaluated for binding to (1) human NKG2A, (2) human NKG2C, and (3) cyno NKG2A. Bivalent interaction of binders to biotinylated human NKG2A (see Example 1), biotinylated human NKG2C/CD94 heterodimer, or biotinylated cyno NKG2A/CD94 heterodimer immobilized on a streptavidin biosensor was monitored using Octet (Pall ForteBio) instrument. For these assays, human NKG2C/CD94 and cyno NKG2A/CD94 were prepared using the procedure as described in Example 1. Similarly, the extracellular domain of human NKG2C was expressed and purified from HEK293 cells as heterodimer with CD94 as Fc fusions. The extracellular domain of NKG2C used for selection campaigns encompassed amino acid sequence Ile94-Leu231 (Accession No. P26717-1; SEQ ID NO: 75). The gene encoding CD94 (Accession No. Q13241-1, SEQ ID NO:76), Lys33-Ile159 was synthesized from IDT and cloned into mammalian expression vector as an N-terminal Fc (hole) fusion. Plasmids encoding NKG2C-Fc fusion and CD94-Fc fusion were co-transfected into HEK293T cells using standard procedures. NKG2C/CD94 heterodimer was purified from cell supernatant using Protein A resins. Similar approach was used to obtain Cynomolgus NKG2A protein. Specifically, extracellular domain of Cynomolgus NKG2A contained amino acid Pro 94-Leu 233. […]
Background: In BLI a coated tip is dipped into the sample, and binding shifts an interference pattern.

The target in test [2] is T2, NKG2A expressed on KHYG-1 cells (endogenous) (human, UniProt P26715 1-233; Q13241 1-179).
T2 construct: whole, on cells; Surface NKG2A copy number of approximately 10-20K; also called KHYG-1 cells expressing endogenous NKG2A; NKG2A-expressing cells
T2 sequence (P26715 whole entry, chain 1 of 2): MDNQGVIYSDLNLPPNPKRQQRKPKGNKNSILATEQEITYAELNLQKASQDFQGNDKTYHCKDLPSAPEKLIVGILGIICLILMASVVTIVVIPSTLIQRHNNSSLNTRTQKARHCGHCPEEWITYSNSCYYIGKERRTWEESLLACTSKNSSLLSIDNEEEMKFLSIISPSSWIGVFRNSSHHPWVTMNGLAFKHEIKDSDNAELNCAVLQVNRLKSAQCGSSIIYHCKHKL
T2 sequence (Q13241 whole entry, chain 2 of 2): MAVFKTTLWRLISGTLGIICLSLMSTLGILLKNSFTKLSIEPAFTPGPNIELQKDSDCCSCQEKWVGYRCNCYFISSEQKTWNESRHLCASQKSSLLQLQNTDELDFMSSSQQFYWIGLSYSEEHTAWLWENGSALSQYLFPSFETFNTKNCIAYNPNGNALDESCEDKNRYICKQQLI
Description: flow cytometry on KHYG-1 cells expressing endogenous NKG2A. As to the method: Antibodies that were selected for binding to NKG2A, for example, such as those described in Examples 1 and 2, were evaluated for binding to cells that express NKG2A.
Cells were harvested at 70-90% confluence on the day of the assay. Cells were collected by centrifugation at 200×g for 5 minutes and media was removed. Cells were resuspended at 2×10⁶ cells per mL in cold PBS. […] 50 μL per well of the antibody dilution was plated in a 96 well V-bottom plate (Costar 3897). 50 μL per well of cell suspension was added. Plates were placed at 4° C. for 45-60 minutes.
(In flow cytometry, cells or beads pass a laser one at a time.)

Test [3] deals with T3, biotinylated cyno NKG2A/CD94 heterodimer (extracellular domains) (cynomolgus, UniProt Q9MZJ3 94-233; Q9MZK9 32-179, biotinylated).
T3 construct: also called Cynomolgus NKG2A protein; not shown: fusion partner/tags ('similar approach' to the human proteins); fusion partner ('similar approach')
T3 sequence (Q9MZJ3 other isoform, or with tags, fused parts or gaps, chain 1 of 2): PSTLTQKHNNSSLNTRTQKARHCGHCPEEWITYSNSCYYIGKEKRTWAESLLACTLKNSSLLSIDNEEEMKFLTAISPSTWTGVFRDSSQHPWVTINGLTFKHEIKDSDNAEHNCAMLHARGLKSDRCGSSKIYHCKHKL
T3 sequence (Q9MZK9 32-179, chain 2 of 2): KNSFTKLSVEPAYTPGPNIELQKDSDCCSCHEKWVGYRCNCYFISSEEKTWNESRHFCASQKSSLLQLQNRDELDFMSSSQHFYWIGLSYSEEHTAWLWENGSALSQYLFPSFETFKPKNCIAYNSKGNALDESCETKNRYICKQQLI
Description: BLI (Octet), bivalent. As to the method:
A total of 58 binders formatted as IgG antibodies from phage display as described in Example 1 were further tested for binding.
The antibodies were evaluated for binding to (1) human NKG2A, (2) human NKG2C, and (3) cyno NKG2A. Bivalent interaction of binders to biotinylated human NKG2A (see Example 1), biotinylated human NKG2C/CD94 heterodimer, or biotinylated cyno NKG2A/CD94 heterodimer immobilized on a streptavidin biosensor was monitored using Octet (Pall ForteBio) instrument. For these assays, human NKG2C/CD94 and cyno NKG2A/CD94 were prepared using the procedure as described in Example 1. Similarly, the extracellular domain of human NKG2C was expressed and purified from HEK293 cells as heterodimer with CD94 as Fc fusions. The extracellular domain of NKG2C used for selection campaigns encompassed amino acid sequence Ile94-Leu231 (Accession No. P26717-1; SEQ ID NO: 75). The gene encoding CD94 (Accession No. Q13241-1, SEQ ID NO:76), Lys33-Ile159 was synthesized from IDT and cloned into mammalian expression vector as an N-terminal Fc (hole) fusion. Plasmids encoding NKG2C-Fc fusion and CD94-Fc fusion were co-transfected into HEK293T cells using standard procedures. NKG2C/CD94 heterodimer was purified from cell supernatant using Protein A resins. Similar approach was used to obtain Cynomolgus NKG2A protein. Specifically, extracellular domain of Cynomolgus NKG2A contained amino acid Pro 94-Leu 233. […] Extracellular domain of Cynomolgus CD94 contained amino acid residues Lys 33-Ile 179 (Accession No. Q68VD4-1; SEQ ID NO: 78).

T1 sequence (P26717 other isoform, or with tags, fused parts or gaps, chain 1 of 2): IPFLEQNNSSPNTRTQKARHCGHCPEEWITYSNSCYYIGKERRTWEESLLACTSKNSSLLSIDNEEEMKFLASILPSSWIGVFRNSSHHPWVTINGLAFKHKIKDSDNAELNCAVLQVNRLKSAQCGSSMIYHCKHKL
T1 sequence (Q13241 32-179, chain 2 of 2): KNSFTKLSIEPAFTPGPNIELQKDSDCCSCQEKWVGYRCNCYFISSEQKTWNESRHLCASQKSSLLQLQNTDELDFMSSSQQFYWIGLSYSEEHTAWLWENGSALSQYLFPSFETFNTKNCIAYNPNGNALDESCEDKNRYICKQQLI

B1: Antibody Clone A3 (antibody, human IgG1, kappa, V domains shown)
VH: EVQLVESGGGLVQPGGSLRLSCAASGFTFSSYYIHWVRQAPGKGLEWVASISPYDGYTDYADSVKGRFTISADTSKNTAYLQMNSLRAEDTAVYYCARSSDFSPWTSSGGMDYWGQGTLVTVSS
VL: DIQMTQSPSSLSASVGDRVTITCRASQSVSSAVAWYQQKPGKAPKLLIYSASSLYSGVPSRFSGSRSGTDFTLTISSLQPEDFATYYCQQYGSSLRTFGQGTKVEIKR
B1: in test [1], the binding result is “no binding”. In addition, the EC50 (as a rule, the concentration at which the effect is half-maximal) in test [2] is 0.303 nM.

B2: Antibody Clone A2 (antibody, human IgG1, kappa, V domains shown)
VH: B1 VH with I51Y, S52V, Y54E, S103I
VL: B1 VL with S31R, Y55H, L95A
As for B2, the binding result in test [3] and in test [1] was “no binding” throughout. In test [2], this molecule had an EC50 of 37.5 nM.
